Publication PMC3397948, “Cytoplasmic Sulfurtransferases in the Purple Sulfur Bacterium Allochromatium vinosum: Evidence for Sulfur Transfer from DsrEFH to DsrC” (PLoS ONE, 2012)

B1: DsrC from Allochromatium vinosum, wild type [Allochromatium vinosum] / DsrEFH from Allochromatium vinosum (DsrE2F2H2 heterohexamer), wild type [Allochromatium vinosum] (parent complex)
chain 1: MADTIEVDGKQFAVDEEGYLSNLNDWVPGVADVMAKQDNLELTEEHWDIINFLREYYEEYQIAPAVRVLTKAVGKKLGKEKGNSKYLYSLFPYGPAKQACRFAGLPKPTGCV
chain 2: MKFALQINEGPYQHQASDSAYQFAKAALEKGHEIFRVFFYHDGVNNSTRLTTPPQDDRHIVNRWAELAEQYELDMVVCVAAAQRRGIVDEGEASRNGKDATNIHPKFRISGLGQLVEAAIQADRLVVFGD
chain 3: MSEVVKKFMYLNRKAPYGTIYAWEALEVVLIGAAFDQDVCVLFLDDGVYQLTRGQDTKGIGMKNFSPTYRTLGDYEVRRIYVDRDSLEARGLTQDDLVEIAFEDMETEEEFDNIVEVIDSARVSELMNESDAVFSF
chain 4: MSILHTVNKSPFERNSLESCLKFATEGASVLLFEDGIYAALAGTRVESQVTEALGKLKLYVLGPDLKARGFSDERVIPGISVVDYAGFVDLTTECDTVQAWL

Variants of: B1
Test: SPR; DsrEFH immobilized; reduced analyte, 80 nM; parent: 35; read off a plot

Variant	response [RU]
chain 1 C100S	~31
chain 1 C111S	~3
chain 1 C100S, chain 1 C111S	~2.8
